Experimental data published in patent US20220306705A1.
Numbering of substitutions follows the chain as printed.

B1: Factor G α-subunit A (protein)
chain: EPKWKLVWSDEFTNGISSDWEFETGNGPNGWGNNELQYYRRENTRVEGGKLIITAKEEDYEGFRYTSAKLKTQFNKPWKDGKIEARMSIPSFRGVWVAFWMLGDITDTDSWPSSGEIDFEEHINTNNEVRGTIHWSTSDDADTLHGRGTNTDYHIYSVEWNSSVIRWFVDGNQYFEVNIQRGATGTNAFHNNVFVILNMAIGGNWPGFNVADEAFPANMYVDYVRVYQDANTPSPVDVTHLSGYYFLQNRHSELYLDVSGSSNEDGAFLQQWPYSGNANQQFDFVHLGNKVYKIINKNSGKSLDVYELGTDNGVRIQQWSYGGGYNQQFIVQDVGDGYYKIFARSTGKLVEVADLNKDPGGKIQQWSDDGQLSGQWKLIRNKANSKLIQAESYFASSKVQLEDTSDVGGGKNVKCDNEGAWMAYKDINFPSSGTYQVEYRVASERAGGMLSLDLNAGSIVLGMLNVPSTGGLQKWTTISHTVNVSSGTYNLGISVQRPGWNINWINITKVSSQLKSIPSTNSRVIQAESYFDSSKVQLEDTSDVGGGKNVKCDTKGAWMAYKDINFPSSGSYQIEYRVASERAGGKLSLDLNAGSIVLGMLDVPSTGGWQKWTTISHTVKVDSGTYNLGIYVQQPGWNINWIKITKV
B2: Factor G α-subunit B (protein)
chain: TNWKLVWSDEFTNGISSDWEFETGNGPNGWGNNELQYYRRENARVEGGKLIITAKKEDYEGFRYTSAKLKTQFNKPWKDGKIEARMSIPSFRGVWVAFWMLGDITDTDSWPSSGEIDFKEHINTNNEVRGTIHWSTSDGAHTHHGRGTNTDYHIYSVEWNSSVIRWFVDGNQYFEVNIQRGATGTNAFHNKVFVILNMAIGGNWPGFNVADEAFPANMYVDYVRVYQDANTPSPVDVDVTDLSGYYFLQNRHSELYLDVSFSSNKDGAFLQQWPYNGNANQQFDFVHLGNNIYKITNKNSGKSLDVYNVGTENGVRIQQMPYRGSYNQQFIVQDVGDGYYKIFARNSRKLVEVADFNKDPGGKIQQWSDDGQISGQWKLIRNKVNSKVIQAESYFASLGVQLEDTSDVGGGKNVKCDTEGAWMAYKDINFPSSGSYQVEYRVASERAGGKLSLDLNAGSIVLGMLNVPSTGGWQKWTTISHTVKVDSGTYNLGIYVQRPRWNINWIKITEAPGQSKPIQRSDTDSKVIQAESYFASSKVQLEDTSDVGGGKNVKCDNEGAWMAYKDINFPSSGSYQIEYRVASERAGGKLSLDLNAGSIVLGMLDVPSTGGWQKWTTISHTVNVSSGTYNLGIYVQRAAWNINWIKITKV
B3: Factor G α-subunit (AB547712) derived from Limulus polyphemus (protein)
chain: SQEPKWKLVWSDEFTNGISSDWEFETGNGPNGWGNNELQYYRRENTRVEGGKLIITAKEEDYEGFRYTSAKLKTQFNKPWKDGKIEARMSIPSFRGVWVAFWMLGDITDTDSWPSSGEIDFEEHINTNNEVRGTIHWSTSDDADTLHGRGTNTDYHIYSVEWNSSVIRWFVDGNQYFDVNIQRGATGTNAFHNNVFVILNMAIGGNWPGFNVADEAFPANMYVDYVRVYQDANTPSPVDVTHLSGYYFLQNRHSELYLDVSGSSNEDGAFLQQWPYSGNANQQFDFVHLGNKVYKIINKNSGKSLDVYELGTDNGVRIQQWSYGGGYNQQFIVQDVGDGYYKIFARSTGKLVEVADLNKDPGGKIQQWSDDGQLSGQWKLIRNKANSKLIQAESYFASSKVQLEDTSDVGGGKNVKCDNEGAWMAYKDINFPSSGTYQVEYRVASERAGGMLSLDLNAGSIVLGMLNVPSTGGLQKWTTISHTVNVSSGTYNLGISVQRPGWNINWINITKVSSQLKSIPSTNSRVIQAESYFDSSKVQLEDTSDVGGGKNVKCDTKGAWMAYKDINFPSSGSYQIEYRVASERAGGKLSLDLNAGSIVLGMLDVPSTGGWQKWTTISHTVKVDSGTYNLGIYVQQPGWNINWIKITKV
B4: Tachypleus Factor G α-subunit (protein)
chain: SHEPKWQLVWSDEFTNGISSDWEFEMGNGLNGWGNNELQYYRRENAQVEGGKLVITAKREDYDGFKYTSARLKTQFDKSWKYGKIEAKMAIPSFRGVWVMFWMSGDNTNYVRWPSSGEIDFIEHRNTNNEKVRGTIHWSTPDGAHAHHNRESNTNGIDYHIYSVEWNSSIVKWFVNGNQYFEVKIQGGVNGKSAFRNKVFVILNMAIGGNWPGFDVADEAFPAKMYIDYVRVYQDASTSSPVGDTSLDGYYFVQNRHSELYLDVTDASNEDGAFLQQWSYSGNENQQFDFEHLENNVYKITNKKSGKSLDVYNFGTENGVRIQQWSYGGARNQQFTVQSVGDGYYKIIPRGSGKLVEVADFSKDAGGKIQQWSDNNQLSGQWKLIKSKSYSKLIQAESYFDSSKVQLEDTSDVGGGKNVKCDNEGAWMAYKDIDFPSSGNYRIEYRVASERAGGKLSLDLNAGSIVLGMLDVPSTGGWQKWTTISHTVNVDSGTYNLGIYVQRASWNINWIKITKIPEQSNLNQGRRNSKLIQAESYFSYSEVQLEDTLDVGGGKNVKCDKEGAWMAYKDIDFPSSGSYRVEYRVASERAGGKLSLDLNAGSIVLGMLDIPSTGGLQKWTTISHIVNVDLGTYNLGIYVQKASWNINWIRITKV

Tests used:
Experiment in all cases: cell-based or functional assay
[1] = biological target: T1, Factor G β-subunit β2 (Limulus polyphemus)
T1 sequence: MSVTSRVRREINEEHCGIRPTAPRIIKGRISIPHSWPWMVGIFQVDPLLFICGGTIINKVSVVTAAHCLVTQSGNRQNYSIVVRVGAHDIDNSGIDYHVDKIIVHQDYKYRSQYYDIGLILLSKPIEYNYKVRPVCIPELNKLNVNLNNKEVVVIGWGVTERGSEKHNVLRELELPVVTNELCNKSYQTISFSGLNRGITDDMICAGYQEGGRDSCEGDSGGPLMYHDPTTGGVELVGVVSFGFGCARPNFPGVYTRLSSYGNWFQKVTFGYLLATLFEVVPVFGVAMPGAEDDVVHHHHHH

[2] = biological target: T2, Factor G β-subunit β5 (Limulus polyphemus)
T2 sequence: T1 sequence with H167Y, G233R

[3] = biological target: T3, Factor G β-subunit βC1 (Limulus polyphemus)
T3 sequence: T1 sequence with Y79S, P125R, H167Y, G233R

[4] = biological target: T4, Factor G β-subunit βC2 (Limulus polyphemus)
T4 sequence: T1 sequence with G233R

[5] = biological target: T5, Factor G β-subunit βi2 (Limulus polyphemus)
T5 sequence: T1 sequence with Y79S, P125R, G233R

[6] = biological target: T6, Factor G β-subunit βi3 (Limulus polyphemus)
T6 sequence: T1 sequence with Y79S, H167Y, G233R

[7] = biological target: T7, Tachypleus Factor G β-subunit (Tachypleus (paragraph 383 prints 'Tachypleus polyphemus'; paragraph 8 prints Tachypleus tridentatus)) (UniProt Q27083)
T7 sequence (looked up): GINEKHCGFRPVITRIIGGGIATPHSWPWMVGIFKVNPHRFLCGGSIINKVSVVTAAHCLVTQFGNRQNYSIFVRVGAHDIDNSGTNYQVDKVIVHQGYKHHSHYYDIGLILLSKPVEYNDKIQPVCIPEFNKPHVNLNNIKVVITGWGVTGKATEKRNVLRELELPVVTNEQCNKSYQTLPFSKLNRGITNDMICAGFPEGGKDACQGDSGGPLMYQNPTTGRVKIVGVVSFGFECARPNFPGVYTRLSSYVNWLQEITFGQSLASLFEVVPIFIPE

| glucan-dependent protease activity of the coexpressed product: blank difference in absorbance (405 nm / 492 nm) with vs without LNT; grade A >0.1, B <=0.1 and >0.01, C <=0.01 and >0, D =0 (absorbance difference) [1] | glucan-dependent protease activity of the coexpressed product: blank difference in absorbance (405 nm / 492 nm) with vs without LNT; grade A >0.1, B <=0.1 and >0.01, C <=0.01 and >0, D =0 (absorbance difference) [2] | glucan-dependent protease activity of the coexpressed product: blank difference in absorbance (405 nm / 492 nm) with vs without LNT; grade A >0.1, B <=0.1 and >0.01, C <=0.01 and >0, D =0 (absorbance difference) [3] | glucan-dependent protease activity of the coexpressed product: blank difference in absorbance (405 nm / 492 nm) with vs without LNT; grade A >0.1, B <=0.1 and >0.01, C <=0.01 and >0, D =0 (absorbance difference) [4] | glucan-dependent protease activity of the coexpressed product: blank difference in absorbance (405 nm / 492 nm) with vs without LNT; grade A >0.1, B <=0.1 and >0.01, C <=0.01 and >0, D =0 (absorbance difference) [5] | glucan-dependent protease activity of the coexpressed product: blank difference in absorbance (405 nm / 492 nm) with vs without LNT; grade A >0.1, B <=0.1 and >0.01, C <=0.01 and >0, D =0 (absorbance difference) [6] | glucan-dependent protease activity of the coexpressed product: blank difference in absorbance (405 nm / 492 nm) with vs without LNT; grade D = blank difference equal to 0 (legend given for Table 13) (absorbance difference) [7] | Binder |
| --- | --- | --- | --- | --- | --- | --- | --- |
| < 0.01 | < 0.1 | < 0.1 | < 0.01 | 0.1 | 0.1 | – | B1 |
| 0.1 | 0 | 0 | < 0.1 | 0 | < 0.01 | – | B2 |
| 0 | 0 | 0 | 0 | 0 | 0 | – | B3 |
| – | – | – | – | – | – | 0 | B4 |
